B1: thio huMA79b.v28-HC(A118C)-BMPEO-DM1 (antibody, human IgG1, kappa)
heavy: not shown
light: DIQLTQSPSSLSASVGDRVTITCKASQSVDYEGDSFLNWYQQKPGKAPKLLIYAASNLESGVPSRFSGSGSGTDFTLTISSLQPEDFATYYCQQSNEDPLTFGQGTKVEIKRTVAAPSVFIFPPSDEQLKSGTASVVCLLNNFYPREAKVQWKVDNALQSGNSQESVTEQDSKDSTYSLSSTLTLSKADYEKHKVYACEVTHQGLSSPVTKSFNRGEC
modifications: BMPEO-DM1 on the engineered Cys at EU position 118 (sequential 118; Kabat 114)
notes: Cysteine engineered antibody drug conjugate
B2: thio huMA79b.v18-HC(A118C)-MC-MMAF (antibody, human IgG1, kappa)
heavy: not shown
light: DIQLTQSPSSLSASVGDRVTITCKASQSVDYDGDSFLNWYQQKPGKAPKLLIYAASNLESGVPSRFSGSGSGTDFTLTISSLQPEDFATYYCQQSNEDPLTFGQGTKVEIKRTVAAPSVFIFPPSDEQLKSGTASVVCLLNNFYPREAKVQWKVDNALQSGNSQESVTEQDSKDSTYSLSSTLTLSKADYEKHKVYACEVTHQGLSSPVTKSFNRGEC
modifications: MC-MMAF on the engineered Cys at EU position 118 (sequential 118; Kabat 114)
notes: as for B1
B3: thio huMA79b.v18-HC(A118C)-MC-vcPAB-MMAE (antibody, human IgG1, kappa)
heavy: not shown
light: DIQLTQSPSSLSASVGDRVTITCKASQSVDYDGDSFLNWYQQKPGKAPKLLIYAASNLESGVPSRFSGSGSGTDFTLTISSLQPEDFATYYCQQSNEDPLTFGQGTKVEIKRTVAAPSVFIFPPSDEQLKSGTASVVCLLNNFYPREAKVQWKVDNALQSGNSQESVTEQDSKDSTYSLSSTLTLSKADYEKHKVYACEVTHQGLSSPVTKSFNRGEC
modifications: MC-val-cit-PAB-MMAE on the engineered Cys at EU position 118 (sequential 118; Kabat 114)
notes: as for B1
B4: thio huMA79b.v18-HC(A118C)-BMPEO-DM1 (antibody, human IgG1, kappa)
heavy: not shown
light: DIQLTQSPSSLSASVGDRVTITCKASQSVDYDGDSFLNWYQQKPGKAPKLLIYAASNLESGVPSRFSGSGSGTDFTLTISSLQPEDFATYYCQQSNEDPLTFGQGTKVEIKRTVAAPSVFIFPPSDEQLKSGTASVVCLLNNFYPREAKVQWKVDNALQSGNSQESVTEQDSKDSTYSLSSTLTLSKADYEKHKVYACEVTHQGLSSPVTKSFNRGEC
modifications: BMPEO-DM1 on the engineered Cys at EU position 118 (sequential 118; Kabat 114)
notes: Cysteine engineered antibody drug conjugate; also called huMA79b.v18-HC(A118C) thioMAb-BMPEO-DM1
B5: huMA79b graft variant SEQ ID NO: 82 (Fab, name in Kabat numbering, V domains shown)
VH: EVQLVESGGGLVQPGGSLRLSCAASGYPFNRYWIEWVRQAPGKGLEWVGEILPGGGDTNYNEIFKGRFTISADTSKNTAYLQMNSLRAEDTAVYYCTRRVPVYFDYWGQGTLVTVSS
VL: DIQMTQSPSSLSASVGDRVTITCKASQSVDYDGDSFLNWYQQKPGKAPKLLIYAASNLESGVPSRFSGSGSGTDFTLTISSLQPEDFATYYCQQSNEDPLTFGQGTKVEIKR
notes: Fab on phage; rest as huMA79b graft
B6: huMA79b graft variant SEQ ID NO: 83 (Fab, name in Kabat numbering, V domains shown)
VH: EVQLVESGGGLVQPGGSLRLSCAASGYPFNGYWINWVRQAPGKGLEWVGEILPGGGDTNYNEIFKGRFTISADTSKNTAYLQMNSLRAEDTAVYYCTRRVPVYFDYWGQGTLVTVSS
VL: DIQMTQSPSSLSASVGDRVTITCKASQSVDYDGDSFLNWYQQKPGKAPKLLIYAASNLESGVPSRFSGSGSGTDFTLTISSLQPEDFATYYCQQSNEDPLTFGQGTKVEIKR
notes: as for B5
B7: huMA79b graft variant SEQ ID NO: 84 (Fab, name in Kabat numbering, V domains shown)
VH: EVQLVESGGGLVQPGGSLRLSCAASGYNVSSYWLSWVRQAPGKGLEWVGEILPGGGDTNYNEIFKGRFTISADTSKNTAYLQMNSLRAEDTAVYYCTRRVPVYFDYWGQGTLVTVSS
VL: DIQMTQSPSSLSASVGDRVTITCKASQSVDYDGDSFLNWYQQKPGKAPKLLIYAASNLESGVPSRFSGSGSGTDFTLTISSLQPEDFATYYCQQSNEDPLTFGQGTKVEIKR
notes: as for B5
B8: huMA79b graft variant SEQ ID NO: 85 (Fab, name in Kabat numbering, V domains shown)
VH: EVQLVESGGGLVQPGGSLRLSCAASGFPFTSYWISWVRQAPGKGLEWVGEILPGGGDTNYNEIFKGRFTISADTSKNTAYLQMNSLRAEDTAVYYCTRRVPVYFDYWGQGTLVTVSS
VL: DIQMTQSPSSLSASVGDRVTITCKASQSVDYDGDSFLNWYQQKPGKAPKLLIYAASNLESGVPSRFSGSGSGTDFTLTISSLQPEDFATYYCQQSNEDPLTFGQGTKVEIKR
notes: as for B5
B9: huMA79b graft variant SEQ ID NO: 86 (Fab, name in Kabat numbering, V domains shown)
VH: EVQLVESGGGLVQPGGSLRLSCAASGFPFNRYWINWVRQAPGKGLEWVGEILPGGGDTNYNEIFKGRFTISADTSKNTAYLQMNSLRAEDTAVYYCTRRVPVYFDYWGQGTLVTVSS
VL: DIQMTQSPSSLSASVGDRVTITCKASQSVDYDGDSFLNWYQQKPGKAPKLLIYAASNLESGVPSRFSGSGSGTDFTLTISSLQPEDFATYYCQQSNEDPLTFGQGTKVEIKR
notes: as for B5
B10: huMA79b graft variant SEQ ID NO: 89 (Fab, name in Kabat numbering, V domains shown)
VH: EVQLVESGGGLVQPGGSLRLSCAASGYTFSSYWIEWVRQAPGKGLEWVGEILPGGGDTNYNEIFKGRFTISADTSKNTAYLQMNSLRAEDTAVYYCTRRVPVKLDYWGQGTLVTVSS
VL: DIQMTQSPSSLSASVGDRVTITCKASQSVDYDGDSFLNWYQQKPGKAPKLLIYAASNLESGVPSRFSGSGSGTDFTLTISSLQPEDFATYYCQQSNEDPLTFGQGTKVEIKR
notes: as for B5
B11: huMA79b graft variant SEQ ID NO: 92 (Fab, name in Kabat numbering, V domains shown)
VH: EVQLVESGGGLVQPGGSLRLSCAASGYTFSSYWIEWVRQAPGKGLEWVGEILPGGGDTNYNEIFKGRFTISADTSKNTAYLQMNSLRAEDTAVYYCTRRVPFCLDYWGQGTLVTVSS
VL: DIQMTQSPSSLSASVGDRVTITCKASQSVDYDGDSFLNWYQQKPGKAPKLLIYAASNLESGVPSRFSGSGSGTDFTLTISSLQPEDFATYYCQQSNEDPLTFGQGTKVEIKR
notes: as for B5
B12: huMA79b graft variant SEQ ID NO: 95 (Fab, name in Kabat numbering, V domains shown)
VH: EVQLVESGGGLVQPGGSLRLSCAASGYTFSSYWIEWVRQAPGKGLEWVGEILPGGGDTNYNEIFKGRFTISADTSKNTAYLQMNSLRAEDTAVYYCTRRVPIKLDYWGQGTLVTVSS
VL: DIQMTQSPSSLSASVGDRVTITCKASQSVDYDGDSFLNWYQQKPGKAPKLLIYAASNLESGVPSRFSGSGSGTDFTLTISSLQPEDFATYYCQQSNEDPLTFGQGTKVEIKR
notes: as for B5
B13: huMA79b graft variant SEQ ID NO: 96 (Fab, name in Kabat numbering, V domains shown)
VH: EVQLVESGGGLVQPGGSLRLSCAASGYTFSSYWIEWVRQAPGKGLEWVGEILPGGGDTNYNEIFKGRFTISADTSKNTAYLQMNSLRAEDTAVYYCTRRVPIRFDYWGQGTLVTVSS
VL: DIQMTQSPSSLSASVGDRVTITCKASQSVDYDGDSFLNWYQQKPGKAPKLLIYAASNLESGVPSRFSGSGSGTDFTLTISSLQPEDFATYYCQQSNEDPLTFGQGTKVEIKR
notes: as for B5
B14: huMA79b graft variant SEQ ID NO: 98 (Fab, name in Kabat numbering, V domains shown)
VH: EVQLVESGGGLVQPGGSLRLSCAASGYTFSSYWIEWVRQAPGKGLEWVGEILPGGGDTNYNEIFKGRFTISADTSKNTAYLQMNSLRAEDTAVYYCTRRVPVYFSYWGQGTLVTVSS
VL: DIQMTQSPSSLSASVGDRVTITCKASQSVDYDGDSFLNWYQQKPGKAPKLLIYAASNLESGVPSRFSGSGSGTDFTLTISSLQPEDFATYYCQQSNEDPLTFGQGTKVEIKR
notes: as for B5
B15: huMA79b graft variant SEQ ID NO: 99 (Fab, name in Kabat numbering, V domains shown)
VH: EVQLVESGGGLVQPGGSLRLSCAASGYTFSSYWIEWVRQAPGKGLEWVGEILPGGGDTNYNEIFKGRFTISADTSKNTAYLQMNSLRAEDTAVYYCTRRVPVVLDYWGQGTLVTVSS
VL: DIQMTQSPSSLSASVGDRVTITCKASQSVDYDGDSFLNWYQQKPGKAPKLLIYAASNLESGVPSRFSGSGSGTDFTLTISSLQPEDFATYYCQQSNEDPLTFGQGTKVEIKR
notes: as for B5
B16: huMA79b graft variant SEQ ID NO: 100 (Fab, name in Kabat numbering, V domains shown)
VH: EVQLVESGGGLVQPGGSLRLSCAASGYTFSSYWIEWVRQAPGKGLEWVGEILPGGGDTNYNEIFKGRFTISADTSKNTAYLQMNSLRAEDTAVYYCTRRVPVRLDYWGQGTLVTVSS
VL: DIQMTQSPSSLSASVGDRVTITCKASQSVDYDGDSFLNWYQQKPGKAPKLLIYAASNLESGVPSRFSGSGSGTDFTLTISSLQPEDFATYYCQQSNEDPLTFGQGTKVEIKR
notes: as for B5
B17: huMA79b graft variant SEQ ID NO: 101 (Fab, name in Kabat numbering, V domains shown)
VH: EVQLVESGGGLVQPGGSLRLSCAASGYTFSSYWIEWVRQAPGKGLEWVGEILPGGGDTNYNEIFKGRFTISADTSKNTAYLQMNSLRAEDTAVYYCTRRVPVRFDYWGQGTLVTVSS
VL: DIQMTQSPSSLSASVGDRVTITCKASQSVDYDGDSFLNWYQQKPGKAPKLLIYAASNLESGVPSRFSGSGSGTDFTLTISSLQPEDFATYYCQQSNEDPLTFGQGTKVEIKR
notes: as for B5
B18: huMA79b graft variant SEQ ID NO: 102 (Fab, name in Kabat numbering, V domains shown)
VH: EVQLVESGGGLVQPGGSLRLSCAASGYTFSSYWIEWVRQAPGKGLEWVGEILPGGGDTNYNEIFKGRFTISADTSKNTAYLQMNSLRAEDTAVYYCTRRVPVFLDYWGQGTLVTVSS
VL: DIQMTQSPSSLSASVGDRVTITCKASQSVDYDGDSFLNWYQQKPGKAPKLLIYAASNLESGVPSRFSGSGSGTDFTLTISSLQPEDFATYYCQQSNEDPLTFGQGTKVEIKR
notes: as for B5
B19: huMA79b graft variant SEQ ID NO: 105 (Fab, name in Kabat numbering, V domains shown)
VH: EVQLVESGGGLVQPGGSLRLSCAASGYTFSSYWIEWVRQAPGKGLEWVGEILPGGGDTNYNEIFKGRFTISADTSKNTAYLQMNSLRAEDTAVYYCTRRRPVCLDYWGQGTLVTVSS
VL: DIQMTQSPSSLSASVGDRVTITCKASQSVDYDGDSFLNWYQQKPGKAPKLLIYAASNLESGVPSRFSGSGSGTDFTLTISSLQPEDFATYYCQQSNEDPLTFGQGTKVEIKR
notes: as for B5
B20: huMA79b graft variant SEQ ID NO: 106 (Fab, name in Kabat numbering, V domains shown)
VH: EVQLVESGGGLVQPGGSLRLSCAASGYTFSSYWIEWVRQAPGKGLEWVGEILPGGGDTNYNEIFKGRFTISADTSKNTAYLQMNSLRAEDTAVYYCTRRIPVYFDYWGQGTLVTVSS
VL: DIQMTQSPSSLSASVGDRVTITCKASQSVDYDGDSFLNWYQQKPGKAPKLLIYAASNLESGVPSRFSGSGSGTDFTLTISSLQPEDFATYYCQQSNEDPLTFGQGTKVEIKR
notes: as for B5

What follows are binders tested against T1, human CD79b on the cell surface (human, UniProt P40259 29-229) (assay: FACS on BJAB-luciferase cells, PE anti-human detection).
T1 construct: In the Scatchard analysis the BJAB line also stably expressed cynomolgus CD79b; also called PRO36249; endogenous human CD79b on DoHH-2, BJAB and BJAB-luciferase cells
T1 sequence: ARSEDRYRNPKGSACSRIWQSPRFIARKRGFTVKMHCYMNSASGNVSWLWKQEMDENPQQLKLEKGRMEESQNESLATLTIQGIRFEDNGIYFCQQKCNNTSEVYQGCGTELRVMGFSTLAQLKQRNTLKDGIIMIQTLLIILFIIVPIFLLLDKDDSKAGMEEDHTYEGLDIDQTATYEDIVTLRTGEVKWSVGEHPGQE

Binder	binding result
B1	binds

These binders were tested against T1, human CD79b on the cell surface (assay: FACS on BJAB-luciferase cells, PE anti-human IgG detection).

Binder	binding result
B2	binds
B3	binds
B4	binds

Each binder was assayed against T2, extracellular domain of human CD79b (human, UniProt P40259 29-159) (assay: phage selection, Fab on phage, plate-bound huCD79becd).
T2 construct: also called huCD79becd; huCD79b-ecd
T2 sequence: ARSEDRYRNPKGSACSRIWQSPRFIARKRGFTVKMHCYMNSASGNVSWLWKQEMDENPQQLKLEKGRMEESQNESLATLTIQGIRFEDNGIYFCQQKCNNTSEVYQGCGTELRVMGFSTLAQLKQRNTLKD

Binder	binding result
B5	binds
B6	binds
B7	binds
B8	binds
B9	binds
B10	binds
B11	binds
B12	binds
B13	binds
B14	binds
B15	binds
B16	binds
B17	binds
B18	binds
B19	binds
B20	binds
